According to publication PMC3404614 (Biochimica et Biophysica Acta, 2012):

System: Akt
Assay: pS473 Akt phosphorylation by pancreatic growth factors
Type: cell-based
Conditions: rat pancreatic acini; data not shown

B1: hepatocyte growth factor (protein, UniProt P17945 33-495; P17945 496-728, looked up)
Hepatocyte growth factor …: QKKRRNTLHEFKKSAKTTLTKEDPLVKIKTKKVNSADECANRCIRNKGFPFTCKAFVFDKSRKRCYWYPFNSMSSGVKKGFGHEFDLYENKDYIRNCIIGKGGSYKGTVSITKSGIKCQPWNSMIPHEHSFLPSSYRGKDLQENYCRNPRGEEGGPWCFTSNPEVRYEVCDIPQCSEVECMTCNGESYRGPMDHTESGKTCQRWDQQTPHRHKFLPERYPDKGFDDNYCRNPDGKPRPWCYTLDPDTPWEYCAIKMCAHSAVNETDVPMETTECIKGQGEGYRGTTNTIWNGIPCQRWDSQYPHKHDITPENFKCKDLRENYCRNPDGAESPWCFTTDPNIRVGYCSQIPKCDVSSGQDCYRGNGKNYMGNLSKTRSGLTCSMWDKNMEDLHRHIFWEPDASKLTKNYCRNPDDDAHGPWCYTGNPLVPWDYCPISRCEGDTTPTIVNLDHPVISCAKTKQLR
Hepatocyte growth factor beta …: VVNGIPTQTTVGWMVSLKYRNKHICGGSLIKESWVLTARQCFPARNKDLKDYEAWLGIHDVHERGEEKRKQILNISQLVYGPEGSDLVLLKLARPAILDNFVSTIDLPSYGCTIPEKTTCSIYGWGYTGLINADGLLRVAHLYIMGNEKCSQHHQGKVTLNESELCAGAEKIGSGPCEGDYGGPLICEQHKMRMVLGVIVPGRGCAIPNRPGIFVRVAYYAKWIHKVILTYKL
- pS473 Akt phosphorylation: stimulated pS473 Akt phosphorylation
